Measurements as given in paper PMC5724578 (Biochemistry, 2017).

Assay: Stability of EVH1 mutant in aqueous solution
Type: physicochemical

B1: EVH1 Y39E: phosphomimetic Y39E mutant of human VASP EVH1 domain (protein)
chain: GPGGRMSSETVICSSRATVMLYDDGNKRWLPAGTGPQAFSRVQIEHNPTANSFRVVGRKMQPDQQVVINCAIVRGVKYNQATPNFHQWRDARQVWGLNFGSKEDAAQFAAGMASALEALEG
modifications: left off: His tag, end not stated, cleaved
- stability in aqueous solution: stable in aqueous solution
